IntAct's records for PubMed 26344566

Target: PEX5, P50542-3

effect of a mutation on the interaction: decreasing interaction strength
Substance: Serine-protein kinase ATM (Homo sapiens), Q13315 R3047Q
